What was measured:
BcUGlcAE = target: T1, BcUGlcAE (Bacillus cytotoxicus, UniProt A7GQD3); experiment: HPLC product assay, inhibition; type: biochemical; details: 1 mM UDP-GlcA, 1 mM NAD+, 50 mM phosphate pH 7.6, 37 °C
T1 sequence (A7GQD3 1-314): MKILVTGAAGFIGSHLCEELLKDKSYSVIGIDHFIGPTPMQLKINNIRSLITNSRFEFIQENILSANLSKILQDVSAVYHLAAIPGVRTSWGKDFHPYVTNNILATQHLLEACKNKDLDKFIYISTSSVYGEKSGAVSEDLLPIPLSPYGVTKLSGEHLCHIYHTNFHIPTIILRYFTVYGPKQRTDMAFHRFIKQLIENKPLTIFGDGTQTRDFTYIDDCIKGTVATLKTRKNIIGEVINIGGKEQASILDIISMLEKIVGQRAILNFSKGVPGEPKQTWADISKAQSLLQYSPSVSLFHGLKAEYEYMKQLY

HPLC [1] = substrate: O=C(O)[C@H]1O[C@H](OP(=O)(O)OP(=O)(O)OC[C@H]2O[C@@H](n3ccc(=O)[nH]c3=O)[C@H](O)[C@@H]2O)[C@H](O)[C@@H](O)[C@@H]1O; experiment: HPLC; type: biochemical, Bacillus cytotoxicus; details: 1 mM NAD+, 50 mM sodium phosphate pH 7.6, 37 °C
HPLC [2] = substrate: Cc1cn([C@H]2C[C@H](O)[C@@H](COP(=O)(O)OP(=O)(O)O[C@H]3O[C@H](C(=O)O)[C@@H](O)[C@H](O)[C@H]3O)O2)c(=O)[nH]c1=O; experiment: HPLC; type: biochemical, Bacillus cytotoxicus; details: 1 mM NAD+, 50 mM sodium phosphate pH 7.6, 37 °C

## O=c1ccn([C@@H]2O[C@H](COP(=O)(O)OP(=O)(O)O[C@H]3OC[C@@H](O)[C@H](O)[C@H]3O)[C@@H](O)[C@H]2O)c(=O)[nH]1 [UDP-Xyl]
BcUGlcAE
  inhibition: the epimerase was highly inhibited by UDP and to a lesser extent by UDP-Xyl

## O=c1ccn([C@@H]2O[C@H](COP(=O)(O)OP(=O)(O)O)[C@@H](O)[C@H]2O)c(=O)[nH]1 [UDP]
BcUGlcAE
  inhibition: the epimerase was highly inhibited by UDP and to a lesser extent by UDP-Xyl

B1: BcUGlcAE (Bacillus cytotoxicus NVH 391-98) (protein)
chain: MKILVTGAAGFIGSHLCEELLKDKSYSVIGIDHFIGPTPMQLKINNIRSLITNSRFEFIQENILSANLSKILQDVSAVYHLAAIPGVRTSWGKDFHPYVTNNILATQHLLEACKNKDLDKFIYISTSSVYGEKSGAVSEDLLPIPLSPYGVTKLSGEHLCHIYHTNFHIPTIILRYFTVYGPKQRTDMAFHRFIKQLIENKPLTIFGDGTQTRDFTYIDDCIKGTVATLKTRKNIIGEVINIGGKEQASILDIISMLEKIVGQRAILNFSKGVPGEPKQTWADISKAQSLLQYSPSVSLFHGLKAEYEYMKQLY
HPLC [1]
  Km: 120 ± 10 µM
  kcat: 3.2 ± 0.1 s⁻¹
  kcat/Km: 26000 ± 1400 M⁻¹ s⁻¹
HPLC [2]
  Km: 180 ± 10 µM
  kcat: 2.1 ± 0.1 s⁻¹
  kcat/Km: 12000 ± 400 M⁻¹ s⁻¹

From PMC3240692 (The FEBS journal, 2011)
